Holding throughout (experiment): fluorescence polarisation
Test [1] addresses T1, wild type Rb pocket domain (Rb^P) (human, UniProt P06400 380-788).
T1 sequence: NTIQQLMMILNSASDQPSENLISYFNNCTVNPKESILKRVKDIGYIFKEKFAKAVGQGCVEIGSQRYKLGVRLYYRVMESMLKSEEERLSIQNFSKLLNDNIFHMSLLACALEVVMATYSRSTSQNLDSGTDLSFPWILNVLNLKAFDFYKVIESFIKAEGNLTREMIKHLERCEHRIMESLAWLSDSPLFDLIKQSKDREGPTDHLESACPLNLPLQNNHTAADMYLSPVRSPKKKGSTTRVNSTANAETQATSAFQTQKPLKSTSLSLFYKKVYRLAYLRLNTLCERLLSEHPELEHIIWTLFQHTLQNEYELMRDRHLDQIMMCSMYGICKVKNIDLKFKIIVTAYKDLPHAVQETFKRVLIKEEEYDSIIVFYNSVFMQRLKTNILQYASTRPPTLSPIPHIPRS

Another test has as its target T2, Rb^P S474I (human, UniProt P06400 380-788, S474I).
T2 sequence: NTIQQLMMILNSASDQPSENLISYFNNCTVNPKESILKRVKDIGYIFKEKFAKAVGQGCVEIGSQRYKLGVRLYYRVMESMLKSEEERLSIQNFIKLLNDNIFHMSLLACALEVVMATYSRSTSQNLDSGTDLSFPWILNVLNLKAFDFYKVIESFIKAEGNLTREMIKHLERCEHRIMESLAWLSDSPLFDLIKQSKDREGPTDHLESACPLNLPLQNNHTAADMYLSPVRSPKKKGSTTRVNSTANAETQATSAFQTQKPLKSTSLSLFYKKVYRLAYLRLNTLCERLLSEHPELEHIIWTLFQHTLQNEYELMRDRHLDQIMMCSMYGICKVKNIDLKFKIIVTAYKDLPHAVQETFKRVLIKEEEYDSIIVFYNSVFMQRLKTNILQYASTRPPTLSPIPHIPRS

The target of a further test is T3, Rb^P E492Q (human, UniProt P06400 380-788, E492Q).
T3 sequence: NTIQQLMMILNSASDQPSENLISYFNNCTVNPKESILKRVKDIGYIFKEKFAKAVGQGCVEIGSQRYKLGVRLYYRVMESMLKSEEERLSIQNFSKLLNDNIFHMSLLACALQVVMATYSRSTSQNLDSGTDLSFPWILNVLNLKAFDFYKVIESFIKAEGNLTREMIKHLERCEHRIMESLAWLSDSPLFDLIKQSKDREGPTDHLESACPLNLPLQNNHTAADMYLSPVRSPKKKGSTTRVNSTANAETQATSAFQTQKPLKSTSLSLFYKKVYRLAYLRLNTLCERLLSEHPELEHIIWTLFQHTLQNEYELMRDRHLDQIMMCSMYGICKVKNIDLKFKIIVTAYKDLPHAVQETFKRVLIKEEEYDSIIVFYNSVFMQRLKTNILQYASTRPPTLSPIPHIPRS

The target in the next test is T4, Rb^P R741S (human, UniProt P06400 380-788, R741S).
T4 sequence: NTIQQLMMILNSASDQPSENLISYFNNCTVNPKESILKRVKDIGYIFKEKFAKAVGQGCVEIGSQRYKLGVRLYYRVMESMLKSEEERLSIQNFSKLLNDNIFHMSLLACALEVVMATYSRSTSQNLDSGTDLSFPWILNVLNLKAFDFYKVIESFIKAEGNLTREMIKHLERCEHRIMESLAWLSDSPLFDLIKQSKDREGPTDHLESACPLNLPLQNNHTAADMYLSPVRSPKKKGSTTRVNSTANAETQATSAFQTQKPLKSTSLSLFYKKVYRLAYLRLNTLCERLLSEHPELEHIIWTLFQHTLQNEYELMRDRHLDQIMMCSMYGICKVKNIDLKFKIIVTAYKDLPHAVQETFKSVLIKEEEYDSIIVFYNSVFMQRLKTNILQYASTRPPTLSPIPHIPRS

A further test deals with T5, Rb^P R763T (human, UniProt P06400 380-788, R763T).
T5 sequence: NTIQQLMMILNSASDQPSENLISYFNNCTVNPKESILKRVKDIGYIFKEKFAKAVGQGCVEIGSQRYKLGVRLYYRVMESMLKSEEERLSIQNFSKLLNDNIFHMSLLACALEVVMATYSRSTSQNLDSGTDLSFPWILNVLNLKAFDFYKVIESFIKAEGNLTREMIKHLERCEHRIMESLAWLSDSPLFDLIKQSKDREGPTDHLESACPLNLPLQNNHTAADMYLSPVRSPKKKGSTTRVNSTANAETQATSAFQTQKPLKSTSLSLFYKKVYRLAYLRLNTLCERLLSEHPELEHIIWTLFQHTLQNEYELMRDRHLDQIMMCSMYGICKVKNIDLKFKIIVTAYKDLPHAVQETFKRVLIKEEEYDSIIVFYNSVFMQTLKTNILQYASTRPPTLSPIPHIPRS

Consider DLYCYEQLN (not fully specified; TMR fluorescent label (TMR-E7^LxCxE)) [TMR-E7^LxCxE (LxCxE peptide of the E7 oncoprotein from HPV, TMR-labeled)], for which the Kd in test [1] turned out to be 12 nM. Also, the binding result with Rb^P S474I, with Rb^P E492Q, in the test with Rb^P R741S and with Rb^P R763T was “binds” throughout.

By Kd is commonly meant the constant that tells how readily two partners part at equilibrium.

Source of the values: article doi:10.1101/2024.09.22.614354 (bioRxiv, 2024).
